Patent publication US20260022175A1 (Chugai, published 2026)
Substitutions are numbered along the chain they refer to. Numbers in names are those of the source.

Experiments:
[1] = target: T1, human FcγRIIb extracellular domain with C-terminal His-tag (human, UniProt P31994 43-217); assay: SPR; FcγRIIb at 1000 nM, bound amount per unit captured Ab
T1 construct: extracellular domain; also called hFcγR IIb
T1 sequence (looked up): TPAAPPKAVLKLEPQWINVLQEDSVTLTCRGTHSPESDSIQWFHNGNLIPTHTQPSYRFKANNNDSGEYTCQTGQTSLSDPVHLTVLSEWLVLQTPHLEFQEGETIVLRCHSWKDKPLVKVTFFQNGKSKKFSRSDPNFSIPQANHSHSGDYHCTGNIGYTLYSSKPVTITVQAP
Protocol: (§1) The interaction between the generated antibodies and human FcγRs was analyzed by the following method using Biacore T200. 50 mM Na-Phosphate, 150 mM NaCl, 0.05% Tween20 (pH 7.4) was used as the running buffer, and the assay was performed at 25° C. For the sensor chips, Series S SA (GE Healthcare) chips onto which CaptureSelect Human Fab-lambda Kinetics Biotin Conjugate (Thermo Fisher Scientific) was immobilized were used. The antibodies of interest were captured onto these chips and each FcγR diluted in the running buffer was allowed to interact with them. Chips were regenerated with 10 mM Glycine-HCl (pH 1.5) and 25 mM NaOH, and assay was performed by repeatedly capturing antibodies. The dissociation constants KD (mol/L) for FcγRs of each antibody were calculated using Biacore T200 Evaluation Software 2.0, using the 1:1 Langmuir binding model for FcγRIa and FcγRIIIa and the steady state affinity model for FcγRIIa. For FcγRIIb, the binding amount of FcγRIIb per unit amount of antibody was calculated by correcting the binding amount of FcγRIIb obtained from the sensorgram obtained by the measurement with the amount of antibody captured onto the chip surface.

human FcRn [2] = target: T2, human FcRn (human, UniProt P55899 24-290; P61769 21-119); assay: SPR Biacore T200, Ab captured via Fab-lambda, pH 6.0, 25C, steady state
T2 construct: Prepared by the method of WO 2010/107110; also called hFcRn
T2 sequence (P55899 24-290 limits assumed, chain 1 of 2): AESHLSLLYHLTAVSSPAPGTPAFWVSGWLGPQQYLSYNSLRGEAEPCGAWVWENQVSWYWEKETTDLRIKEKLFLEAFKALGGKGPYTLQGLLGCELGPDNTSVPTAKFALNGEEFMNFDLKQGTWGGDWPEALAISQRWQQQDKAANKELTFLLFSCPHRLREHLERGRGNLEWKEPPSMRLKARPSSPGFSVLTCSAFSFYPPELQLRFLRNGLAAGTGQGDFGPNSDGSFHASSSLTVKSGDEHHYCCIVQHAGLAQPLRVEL
T2 sequence (P61769 21-119 limits assumed, chain 2 of 2): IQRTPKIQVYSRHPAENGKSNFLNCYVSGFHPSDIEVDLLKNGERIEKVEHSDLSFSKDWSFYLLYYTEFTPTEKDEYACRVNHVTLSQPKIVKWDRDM
Protocol: (§2) The interaction between the generated antibodies and human FcRn was analyzed by the following method using Biacore T200. 50 mM Na-Phosphate, 150 mM NaCl, 0.05% Tween20 (pH 6.0) was used as the running buffer, and the assay was performed at 25° C. For the sensor chip, Series S SA (GE Healthcare) chips onto which CaptureSelect Human Fab-lambda Kinetics Biotin Conjugate (Thermo Fisher Scientific) was immobilized were used. The antibodies of interest were captured onto these chips and FcRn diluted in the running buffer was allowed to interact with them. Chips were regenerated with 10 mM Glycine-HCl (pH 1.5) and 25 mM NaOH, and assay was performed by repeatedly capturing antibodies. The dissociation constant for FcRn of each antibody was calculated using the steady state model, using Biacore T200 Evaluation Software 2.0.

[3] = target: T3, human FcγRIIIa V allotype extracellular domain with C-terminal His-tag (human, UniProt P08637 17-208); assay: SPR Biacore T200, Ab captured via Fab-lambda, pH 7.4, 25C;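 note: antibodies captured on a streptavidin chip carrying biotinylated anti-Fab-lambda, with each FcγR injected as analyte in phosphate buffer. KD fitted by 1:1 Langmuir or steady-state model depending on receptor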
T3 construct: extracellular domain; also called hFcγR IIIa V
T3 sequence (P08637 17-208 F176V): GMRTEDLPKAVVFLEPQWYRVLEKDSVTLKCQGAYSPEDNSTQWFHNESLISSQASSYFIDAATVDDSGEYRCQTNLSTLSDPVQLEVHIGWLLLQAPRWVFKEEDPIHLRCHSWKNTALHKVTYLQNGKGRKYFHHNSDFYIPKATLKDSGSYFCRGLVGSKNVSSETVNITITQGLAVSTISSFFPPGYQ

[4] = target: T4, human FcγRIa extracellular domain with C-terminal His-tag (human, UniProt P12314 16-292); assay: as above
T4 construct: extracellular domain; also called hFcγR Ia; hFcγRIa
T4 sequence (P12314 16-292): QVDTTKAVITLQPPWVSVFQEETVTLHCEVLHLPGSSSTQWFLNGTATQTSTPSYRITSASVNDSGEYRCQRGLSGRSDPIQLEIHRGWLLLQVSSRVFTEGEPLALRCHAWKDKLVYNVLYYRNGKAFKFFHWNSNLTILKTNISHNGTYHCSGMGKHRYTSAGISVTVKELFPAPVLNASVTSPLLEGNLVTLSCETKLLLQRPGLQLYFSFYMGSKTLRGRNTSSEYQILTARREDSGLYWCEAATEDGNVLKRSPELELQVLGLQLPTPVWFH

[5] = target: T5, human FcγRIIIa F allotype extracellular domain with C-terminal His-tag (human, UniProt P08637 17-208); assay: as above
T5 construct: extracellular domain; also called hFcγR IIIa F
T5 sequence (P08637 17-208): as the sequence (P08637 17-208 F176V) above, with V160F counted along it

[6] = target: T6, human FcγRIIa H allotype extracellular domain with C-terminal His-tag (human, UniProt P12318 34-217); assay: as above
T6 construct: extracellular domain; also called hFcγR IIa H
T6 sequence (looked up): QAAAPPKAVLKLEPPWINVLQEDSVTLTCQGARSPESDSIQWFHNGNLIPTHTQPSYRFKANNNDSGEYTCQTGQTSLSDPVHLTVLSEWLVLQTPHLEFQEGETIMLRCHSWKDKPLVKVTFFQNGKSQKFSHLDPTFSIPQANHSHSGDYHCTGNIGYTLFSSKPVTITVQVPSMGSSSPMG

[7] = target: T7, human FcγRIIa R allotype extracellular domain with C-terminal His-tag (human, UniProt P12318 34-217); assay: as above
T7 construct: extracellular domain; also called hFcγR IIa R
T7 sequence (looked up): T6 sequence (looked up) with H134R

[8] = target: T3, human FcγRIIIa V allotype extracellular …; assay: SPR; KD of 04H1637-G1m/04L1610-lam1 divided by KD of variant;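 note: biacore T200 SPR at 25 °C, antibodies captured on anti-Fab-lambda SA chip with receptor as analyte, running buffer pH 7.4 for FcγRs and pH 6.0 for FcRn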
Protocol: as §1, §2

[9] = target: T4, human FcγRIa extracellular domain with …; assay: as above
Protocol: as §1, §2

human FcRn [10] = target: T2, human FcRn; assay: as above
Protocol: as §1, §2

[11] = target: T5, human FcγRIIIa F allotype extracellular …; assay: as above
Protocol: as §1, §2

[12] = target: T6, human FcγRIIa H allotype extracellular …; assay: as above
Protocol: as §1, §2

[13] = target: T7, human FcγRIIa R allotype extracellular …; assay: as above
Protocol: as §1, §2

[14] = target: T1, human FcγRIIb extracellular domain with …; assay: SPR; binding amount divided by that of 04H1637-G1m/04L1610-lam1

B1: 04H1654-KT461/04L1612-lam1//04H1656-HT443/04L1612-lam1 (antibody, human IgG1, lambda)
heavy 1: QVQLVESGGGVVQPGGSLRLSCAASGFTFSSKTMNWVRQAPGKGLEWVSSISTQSHYIYYARSVRGRFTISRDNAKNSLYLQMNSLRAEDTAVYYCARYGKREDMLWVFDYWGQGTLVTVSSASTKGPSVFPLAPSSKSTSGGTAALGCLVKDYFPEPVTVSWNSGALTSGVHTFPAVLQSSGLYSLSSVVTVPSSSLGTQTYICNVNHKPSNTKVDKRVEPKSCDKTHTCPPCPAPEFQWGPMVFLFPPKPKDVLMISRTPEVTCVVVDVSDEEPEVKFNWYVDGVEVHNAKTKPREEQYNATYRVVSVLPVLHQDWLNGKEYKCKVSNDALPAPEEKTISKAKGQPREPQVYTLPPSRKEMTKNQVSLTCLVKGFYPSDIAVEWESNGQPENNYKTTPPVLDSDGSFFLYSKLTVDKSRWQQGNVFSCSVMHEALHNHYTQKSLSLSP
heavy 2: B1 heavy 1 with R62E, K101A, F239L, Q240L, W241A, M244S, D273H, K339E, K361E, K444E
light: QSALTQPPSASGSPGQSVTISCEGPSTGVGDYTYVHWYQQHPGKAPKLMIYFTSKKPSGVPDRFSGSKSGNTASLTVSGLQAEDEADYYCQTYAAPLGPMFGGGTKLTVLGQPKAAPSVTLFPPSSEELQANKATLVCLISDFYPGAVTVAWKADSSPVKAGVETTTPSKQSNNKYAASSYLSLTPEQWKSHRSYSCQVTHEGSTVEKTVAPTECS
notes: Heterodimerized antibody
- Binding amount [1]: 0.025
- Kd (human FcRn [2]): 1600 nM
- Kd [3]: 1.5 nM
- Kd [4]: 0.039 nM
- Kd [5]: 2.6 nM
- Kd [6]: 210 nM
- Kd [7]: 250 nM
- Relative value to KD between G1m and hFcγRs [8]: 159
- Relative value to KD between G1m and hFcγRs [9]: 1.3
- Relative value to KD between G1m and hFcRn (human FcRn [10]): 0.8
- Relative value to KD between G1m and hFcγRs [11]: 537
- Relative value to KD between G1m and hFcγRs [12]: 7.1
- Relative value to KD between G1m and hFcγRs [13]: 8.2
- Relative binding amount [14]: 3.1

B2: 04H1654-KT462/04L1612-lam1//04H1656-HT445/04L1612-lam1 (antibody, human IgG1, lambda)
heavy 1: B1 heavy 1 with E337I
heavy 2: QVQLVESGGGVVQPGGSLRLSCAASGFTFSSKTMNWVRQAPGKGLEWVSSISTQSHYIYYAESVRGRFTISRDNAKNSLYLQMNSLRAEDTAVYYCARYGAREDMLWVFDYWGQGTLVTVSSASTKGPSVFPLAPSSKSTSGGTAALGCLVKDYFPEPVTVSWNSGALTSGVHTFPAVLQSSGLYSLSSVVTVPSSSLGTQTYICNVNHKPSNTKVDKRVEPKSCDKTHTCPPCPAPELLAGPSVFLFPPKPKDVLMISRTPEVTCVVVDVSHEEPEVKFNWYVDGVEVHNAKTKPREEQYNATYRVVSVLPVLHQDWLNGKEYKCKVSNDALPKPDEETISKAKGQPREPQVYTLPPSREEMTKNQVSLTCLVKGFYPSDIAVEWESNGQPENNYKTTPPVLDSDGSFFLYSKLTVDKSRWQQGNVFSCSVMHEALHNHYTQESLSLSP
light: B1 light
notes: Heterodimerized antibody
- Binding amount [1]: 0.028
- Kd (human FcRn [2]): 1600 nM
- Kd [3]: 2.3 nM
- Kd [4]: 0.041 nM
- Kd [5]: 3.4 nM
- Kd [6]: 91 nM
- Kd [7]: 140 nM
- Relative value to KD between G1m and hFcγRs [8]: 106
- Relative value to KD between G1m and hFcγRs [9]: 1.2
- Relative value to KD between G1m and hFcRn (human FcRn [10]): 0.8
- Relative value to KD between G1m and hFcγRs [11]: 408
- Relative value to KD between G1m and hFcγRs [12]: 16.1
- Relative value to KD between G1m and hFcγRs [13]: 14.2
- Relative binding amount [14]: 3.4

B3: 04H1654-KT473/04L1610-lam1//04H1656-HT482/04L1610-lam1 (antibody)
heavy 1: B1 heavy 1 with E337I, N439A, Y441T, Q443R, S445E
heavy 2: B2 heavy 2 with N439A, Y441T, Q443R, S445E
light: B1 light with T33N, Y34W
notes: Heterodimerized antibody with N434A/Y436T/Q438R/S440E; also called SW1610-ART6+ACT1
- Binding amount [1]: 0.026
- Kd (human FcRn [2]): 580 nM
- Kd [3]: 2.1 nM
- Kd [4]: 0.046 nM
- Kd [5]: 3.8 nM
- Kd [6]: 81 nM
- Kd [7]: 150 nM
- Relative value to KD between G1m and hFcγRs [8]: 115
- Relative value to KD between G1m and hFcγRs [9]: 1.1
- Relative value to KD between G1m and hFcRn (human FcRn [10]): 2.3
- Relative value to KD between G1m and hFcγRs [11]: 363
- Relative value to KD between G1m and hFcγRs [12]: 18
- Relative value to KD between G1m and hFcγRs [13]: 13.9
- Relative binding amount [14]: 3.2

B4: 04H1654-KT473/04L1612-lam1//04H1656-HT482/04L1612-lam1 (antibody)
heavy 1: B1 heavy 1 with E337I, N439A, Y441T, Q443R, S445E
heavy 2: B2 heavy 2 with N439A, Y441T, Q443R, S445E
light: B1 light
notes: Heterodimerized antibody with N434A/Y436T/Q438R/S440E
- Binding amount [1]: 0.026
- Kd (human FcRn [2]): 620 nM
- Kd [3]: 2.2 nM
- Kd [4]: 0.048 nM
- Kd [5]: 3.9 nM
- Kd [6]: 91 nM
- Kd [7]: 150 nM
- Relative value to KD between G1m and hFcγRs [8]: 110
- Relative value to KD between G1m and hFcγRs [9]: 1
- Relative value to KD between G1m and hFcRn (human FcRn [10]): 2.1
- Relative value to KD between G1m and hFcγRs [11]: 355
- Relative value to KD between G1m and hFcγRs [12]: 16.2
- Relative value to KD between G1m and hFcγRs [13]: 13.8
- Relative binding amount [14]: 3.2

B5: 04H1654-KT481/04L1610-lam1//04H1656-HT498/04L1610-lam1 (antibody)
heavy 1: B1 heavy 1 with N439A, Y441T, Q443R, S445E
heavy 2: B2 heavy 2 with K335A, D337E, N439A, Y441T, Q443R, S445E
light: B1 light with T33N, Y34W
notes: as for B4
- Binding amount [1]: 0.022
- Kd (human FcRn [2]): 570 nM
- Kd [3]: 1.6 nM
- Kd [4]: 0.033 nM
- Kd [5]: 2.8 nM
- Kd [6]: 230 nM
- Kd [7]: 260 nM
- Relative value to KD between G1m and hFcγRs [8]: 152
- Relative value to KD between G1m and hFcγRs [9]: 1.5
- Relative value to KD between G1m and hFcRn (human FcRn [10]): 2.3
- Relative value to KD between G1m and hFcγRs [11]: 495
- Relative value to KD between G1m and hFcγRs [12]: 6.5
- Relative value to KD between G1m and hFcγRs [13]: 7.7
- Relative binding amount [14]: 2.7

B6: 04H1654-KT481/04L1612-lam1//04H1656-HT498/04L1612-lam1 (antibody)
heavy 1: B1 heavy 1 with N439A, Y441T, Q443R, S445E
heavy 2: B2 heavy 2 with K335A, D337E, N439A, Y441T, Q443R, S445E
light: B1 light
notes: as for B4
- Binding amount [1]: 0.022
- Kd (human FcRn [2]): 600 nM
- Kd [3]: 1.7 nM
- Kd [4]: 0.043 nM
- Kd [5]: 2.9 nM
- Kd [6]: 230 nM
- Kd [7]: 270 nM
- Relative value to KD between G1m and hFcγRs [8]: 145
- Relative value to KD between G1m and hFcγRs [9]: 1.1
- Relative value to KD between G1m and hFcRn (human FcRn [10]): 2.2
- Relative value to KD between G1m and hFcγRs [11]: 479
- Relative value to KD between G1m and hFcγRs [12]: 6.4
- Relative value to KD between G1m and hFcγRs [13]: 7.6
- Relative binding amount [14]: 2.8
